Columns and labels:
Assay in all cases: cell-based or functional assay
[1] = target: SARS-CoV-2 spike (S) protein, variant B.1.617.1 (SARS-CoV-2)
[2] = target: SARS-CoV-2 spike (S) protein, variant KP.2 (SARS-CoV-2)
[3] = target: SARS-CoV-2 spike (S) protein, variant B.1.351 (SARS-CoV-2)
[4] = target: SARS-CoV-2 spike (S) protein, variant KP.3 (SARS-CoV-2) (UniProt P0DTC2)
[5] = target: SARS-CoV-2 spike (S) protein, variant XBB.1.5 (SARS-CoV-2)
[6] = target: SARS-CoV-2 spike protein, variant KP.2 (SARS-CoV-2)
[7] = target: SARS-CoV-2 spike (S) protein, variant LB.1 (SARS-CoV-2)
[8] = target: SARS-CoV-2 spike (S) protein, variant JN.1.13.1 (SARS-CoV-2)
[9] = target: SARS-CoV-2 spike (S) protein, variant B.1.1.7 (SARS-CoV-2)
[10] = target: SARS-CoV-2 spike (S) protein, variant XBB.2.3.2 (SARS-CoV-2)
[11] = target: SARS-CoV-2 spike (S) protein, variant KP.2.3 (SARS-CoV-2)
[12] = target: SARS-CoV-2 spike (S) protein, variant JN.1 (SARS-CoV-2) (UniProt P0DTC2)
[13] = target: SARS-CoV-2 spike (S) protein, variant P.1 (SARS-CoV-2)
[14] = target: SARS-CoV-2 spike (S) protein, variant BQ.1.1 (SARS-CoV-2) (UniProt P0DTC2)
[15] = target: SARS-CoV-2 spike (S) protein, variant JF.1 (SARS-CoV-2)
[16] = target: SARS-CoV-2 spike (S) protein, variant BA.1 (SARS-CoV-2) (UniProt P0DTC2)
[17] = target: SARS-CoV-2 spike (S) protein, variant HV.1 (SARS-CoV-2)
[18] = target: SARS-CoV-2 spike (S) protein, variant FL.1.5.1 (SARS-CoV-2)
[19] = target: SARS-CoV-2 spike (S) protein, variant HK.3 (SARS-CoV-2)
[20] = target: SARS-CoV-2 spike (S) protein, variant XBC.1 (SARS-CoV-2) (UniProt P0DTC2)
[21] = target: SARS-CoV-2 spike (S) protein, variant BA.4/5 (SARS-CoV-2) (UniProt P0DTC2)
[22] = target: SARS-CoV-2 D614G spike (S) protein (SARS-CoV-2) (UniProt P0DTC2)
[23] = target: SARS-CoV-2 spike (S) protein, variant XBB.1.5 (SARS-CoV-2) (UniProt P0DTC2)
[24] = target: SARS-CoV-2 spike (S) protein, variant XBB.1 (SARS-CoV-2) (UniProt P0DTC2)
[25] = target: SARS-CoV-2 spike (S) protein, variant XBB.1.16 (SARS-CoV-2) (UniProt P0DTC2)

ADG20 (antibody) was tested, and the neutralization IC50 [1] was 0.015 nM, the neutralization IC80 [1] was 0.071 nM and the pseudovirus neutralization IC50 [2] was greater than 67 nM. The pseudovirus neutralization IC80 [2] was greater than 67 nM, the neutralization IC50 [3] was 0.011 nM and the neutralization IC80 [3] was 0.05 nM. For the same substance, the neutralizing activity IC50 (µg/ml (caption; values match nM)) [4] was greater than 67, the neutralizing activity IC80 (µg/ml (caption; values match nM)) [4] was greater than 67 and the neutralizing activity IC50 [5] was greater than 67 nM. For the same substance, the neutralizing activity IC80 [5] was greater than 67 nM, the IC50 (nM), pseudovirus neutralization [6] was greater than 67 nM and the pseudovirus neutralization IC50 [7] was greater than 67 nM. It also gave a pseudovirus neutralization IC80 [7] greater than 67 nM, a pseudovirus neutralization IC50 [8] greater than 67 nM and a pseudovirus neutralization IC80 [8] greater than 67 nM. The neutralization IC50 [9] was 0.106 nM, the neutralization IC80 [9] was 0.424 nM and the neutralizing activity IC50 [10] was greater than 67 nM. The neutralizing activity IC80 [10] was greater than 67 nM, the pseudovirus neutralization IC50 [11] was greater than 67 nM and the pseudovirus neutralization IC80 [11] was greater than 67 nM. The neutralizing activity IC50 (µg/ml (caption; values match nM)) [12] was greater than 67, the neutralizing activity IC80 (µg/ml (caption; values match nM)) [12] was greater than 67 and the neutralizing activity IC50 [13] was 0.021 nM. For the same substance, the neutralizing activity IC80 [13] was 0.117 nM.
AZD3152 (antibody) was tested, and the pseudotyped neutralization potency IC50 [14] was 0.392 nM, the pseudotyped neutralization potency IC80 [14] was 0.944 nM and the IC50, pseudovirus neutralization [15] was greater than 67 nM. It also gave an IC80, pseudovirus neutralization [15] greater than 67 nM, an IC50, pseudovirus neutralization [1] of 0.271 nM and an IC80, pseudovirus neutralization [1] of 0.687 nM. It also gave a pseudotyped neutralization potency IC50 [16] of 0.123 nM, a pseudotyped neutralization potency IC80 [16] of 0.313 nM and an IC50, pseudovirus neutralization [3] of 0.163 nM. The IC80, pseudovirus neutralization [3] was 0.459 nM, the neutralizing activity IC50 (µg/ml (caption; values match nM)) [4] was greater than 67 and the neutralizing activity IC80 (µg/ml (caption; values match nM)) [4] was greater than 67. The IC50, pseudovirus neutralization [17] was greater than 67 nM, the IC80, pseudovirus neutralization [17] was greater than 67 nM and the IC50, pseudovirus neutralization [18] was greater than 67 nM. It also gave an IC80, pseudovirus neutralization [18] greater than 67 nM, an IC50, pseudovirus neutralization [5] of 0.109 nM and an IC80, pseudovirus neutralization [5] of 0.355 nM. It also gave an IC50, pseudovirus neutralization [19] greater than 67 nM, an IC80, pseudovirus neutralization [19] greater than 67 nM and an IC50 (nM), pseudovirus neutralization [6] greater than 67 nM. The pseudotyped neutralization potency IC50 [20] was 0.0322 nM, the pseudotyped neutralization potency IC80 [20] was 0.209 nM and the IC50, pseudovirus neutralization [9] was 0.622 nM. For the same substance, the IC80, pseudovirus neutralization [9] was 1.54 nM, the pseudotyped neutralization potency IC50 [21] was 0.102 nM and the pseudotyped neutralization potency IC80 [21] was 0.266 nM. For the same substance, the IC50, pseudovirus neutralization [10] was 0.168 nM, the IC80, pseudovirus neutralization [10] was 0.513 nM and the pseudovirus neutralization IC50 [22] was 0.015 µg/mL. For the same substance, the neutralizing activity IC50 (µg/ml (caption; values match nM)) [12] was 5.11, the neutralizing activity IC80 (µg/ml (caption; values match nM)) [12] was 28 and the pseudotyped neutralization potency IC50 [23] was 0.12 nM. It also gave a pseudotyped neutralization potency IC80 [23] of 0.308 nM, a pseudotyped neutralization potency IC50 [24] of 0.096 nM and a pseudotyped neutralization potency IC80 [24] of 0.302 nM. It also gave an IC50, pseudovirus neutralization [13] of 0.315 nM, an IC80, pseudovirus neutralization [13] of 0.548 nM and a pseudotyped neutralization potency IC50 [25] of 0.092 nM. The pseudotyped neutralization potency IC80 [25] was 0.381 nM.

Source: US20250326823A1
